Source: patent US20250313859

Molecular target: anti-human ARSA (hARSA) antibodies in cerebrospinal fluid and serum of cynomolgus macaques given AAVhu68.CB7.CI.hARSAco.rBG

B1: human ARSA enzyme expressed from the AAVhu68.CB7.CI.hARSAco.rBG transgene in cynomolgus macaques (protein)
chain: RPPNIVLIFADDLGYGDLGCYGHPSSTTPNLDQLAAGGLRFTDFYVPVSLCTPSRAALLTGRLPVRMGMYPGVLVPSSRGGLPLEEVTVAEVLAARGYLTGMAGKWHLGVGPEGAFLPPHQGFHRFLGIPYSHDQGPCQNLTCFPPATPCDGGCDQGLVPIPLLANLSVEAQPPWLPGLEARYMAFAHDLMADAQRQDRPFFLYYASHHTHYPQFSGQSFAERSGRGPFGDSLMELDAAVGTLMTAIGDLGLLEETLVIFTADNGPETMRMSRGGCSGLLRCGKGTTYEGGVREPALAFWPGHIAPGVTHELASSLDLLPTLAALAGAPLPNVTLDGFDLSPLLLGTGKSPRQSLFFYPSYPDEVRGVFAVRTGKYKAHFFTQGSAHSDTTADPACHASSSLTAHEPPLLYDLSKDPGENYNLLGGVAGATPEVLQALKQLQLLKAQLDAAVTFGPSQVARGEDPALQICCHPGCTPRPACCHCPDPHA
ARSA activity levels in CSF (hydrolysis of 4-nitrocatechol sulfate): CSF ARSA activity levels returned to approximately baseline levels over the subsequent 28 days
